Literature values, collected in patent US11672857B2, “Compositions and methods for a multi-adjuvant only approach to immunoprophylaxis for preventing infections” (University of Southern California, priority 2017, dated 2023).

Test system: T cell
Details: compared with non-glycosylated ovalbumin produced in E. coli

B1: Yeast-mannosylated ovalbumin: recombinant ovalbumin mannosylated by yeast during production (Lam et al.) (protein, UniProt P01012 2-386, looked up)
Ovalbumin: GSIGAASMEFCFDVFKELKVHHANENIFYCPIAIMSALAMVYLGAKDSTRTQINKVVRFDKLPGFGDSIEAQCGTSVNVHSSLRDILNQITKPNDVYSFSLASRLYAEERYPILPEYLQCVKELYRGGLEPINFQTAADQARELINSWVESQTNGIIRNVLQPSSVDSQTAMVLVNAIVFKGLWEKAFKDEDTQAMPFRVTEQESKPVQMMYQIGLFRVASMASEKMKILELPFASGTMSMLVLLPDEVSGLEQLESIINFEKLTEWTSSNVMEERKIKVYLPRMKMEEKYNLTSVLMAMGITDVFSSSANLSGISSAESLKISQAVHAAHAEINEAGREVVGSAEAGVDAASVSEEFRADHPFLFCIKHIATNAVLFFGRCVSP
modifications: yeast mannosylation
T cell proliferation: significantly greater T cell proliferation than did non-glycosylated ovalbumin produced in E. coli
